Laboratory results reported in US20060173159A1, “Water-soluble thioester and selenoester compounds and methods for making and using the same” (priority 2002, published 2006).
No end group written: not given here. *: point of attachment. thioester = C-terminal thioester, without the water-soluble polymer; Acm = CC(=O)NC*

Assay: Dissolution of deprotected and cleaved crude peptide-thioester in 50% aqueous acetonitrile containing 0.08% TFA
Type: physicochemical
Settings: 50% aqueous acetonitrile containing 0.08% trifluoroacetic acid (TFA)

| Substance | dissolution of deprotected and cleaved peptide-thioester |
| --- | --- |
| GRFN 1852-PLP3-Leu: SEQ ID NO:4 peptide, C-terminal L-thioester joined to water-soluble polyamide polymer PLP3-Leu (C(Acm)LSQLHSGLFLYQGLLQALEGISPELGPTLDTLQLDVADFATTIWQQMEEL; not fully specified (C-terminus); also: C-terminal thioester joined to PLP3-Leu polyamide polymer) | completely dissolved |
| GRFN 1852: SEQ ID NO:3 peptide L-thioester, non-polymer modified; comparator (C(Acm)LSQLHSGLFLYQGLLQALEGISPELGPTLDTLQLDVADFATTIWQQMEEL-thioester) | poorly soluble |
